Source: FireProtDB (doi:10.1002/pro.5560061014)

Settings: Bacillus amyloliquefaciens, pH 7.4, Thermal, DSC, Sodium phosphate 50 mM, reversible: yes, whole UniProt chain shown

B1: Barstar wild type, P11540 (protein)
chain: MKKAVINGEQIRSISDLHQTLKKELALPEYYGENLDALWDCLTGWVEYPLVLEWRQFEQSKQLTENGAESVLQVFREAKAEGCDITIILS
With B1 as the protein, how does the “heat capacity change of unfolding” value (25 °C) read?
The value was 1.27 kcal/mol/K.

And the unfolding free energy (25 °C)?
Its unfolding free energy is 23.5 kJ/mol.

What about the Tm of the same protein?
Its Tm is 72.8 °C.

What about the “heat capacity change of unfolding” value of the same protein?
The value was 1.27 kcal/mol/K.

And the “unfolding enthalpy (calorimetric)” value?
The value was 303 kJ/mol.
